Like-named read-outs stand apart in the source and are kept apart here.
Tests used:
[1] = biological target: T1, GtComGD (Geobacillus thermodenitrificans, UniProt A0ABY9Q9R4 29-145); assay: EMSA
T1 sequence: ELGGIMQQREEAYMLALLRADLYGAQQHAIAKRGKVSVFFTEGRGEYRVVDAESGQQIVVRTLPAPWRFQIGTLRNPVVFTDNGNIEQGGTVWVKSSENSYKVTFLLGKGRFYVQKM

[2] = biological target: T1, GtComGD; assay: BLI
[3] = biological target: Geobacillus thermodenitrificans His-MBP-ComGC (Geobacillus thermodenitrificans); assay: SEC
[4] = biological target: Geobacillus thermodenitrificans His-MBP-ComGC (Geobacillus thermodenitrificans); assay: SEC; remark: listed apart in the source
[5] = biological target: Geobacillus thermodenitrificans His-MBP-ComGD (Geobacillus thermodenitrificans); assay: SEC
[6] = biological target: Geobacillus thermodenitrificans His-MBP-ComGD (Geobacillus thermodenitrificans); assay: SEC; remark: listed apart in the source
[7] = biological target: Geobacillus thermodenitrificans His-MBP-ComGD (Geobacillus thermodenitrificans); assay: SEC; remark: listed apart in the source
[8] = biological target: T2, BsComGC (Bacillus subtilis PY79, UniProt P25955 28-98); assay: pull-down
T2 sequence: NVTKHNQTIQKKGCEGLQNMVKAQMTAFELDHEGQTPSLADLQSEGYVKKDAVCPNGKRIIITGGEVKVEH

[9] = biological target: T2, BsComGC; assay: EMSA

**Q.** With 40 bp dsDNA (EMSA) as the molecule, how does the Kd [1] read?
**A.** 20 µM

**Q.** How did the Kd [2] turn out when 2000 bp dsDNA (BLI) was run?
**A.** 96 µM

**Q.** What does the source list for “Geobacillus thermodenitrificans His-MBP-ComGC (domain or fragment)”?
**A.** stoichiometry N [3]: 2; stoichiometry N [4]: 2

**Q.** How did the stoichiometry N [5] turn out when “Geobacillus thermodenitrificans His-MBP-ComGD (domain or fragment)” was run?
**A.** 2

**Q.** What about the stoichiometry N [6] of the same molecule?
**A.** 2

**Q.** What about the stoichiometry N [7] of the same molecule?
**A.** 2

**Q.** Does AAAAAAAAAAAA (ssDNA) [12 nt polyA ssDNA] bind [8]?
**A.** binds

**Q.** For TTTTTTTTTTTTTTTTTTTTTTCCCACAACAAGCCACCCG (ssDNA) [unstructured ssDNA (BLI, Fig. S3A)], which Kd [2] is on record?
**A.** 53 µM

**Q.** Which Kd [1] does the source give for TTTTTTTTTTTTTTTTTTTTTTCCCACAACAAGCCACCCG (ssDNA) [40 nt ssDNA (EMSA, Fig. S3A)] here?
**A.** ~13.6 µM

**Q.** What about the Kd [9] of the same molecule?
**A.** ~100 µM

— doi:10.1101/2025.11.24.690153
